In patent US20210246166A1 (Bayer, published 2021):
Numbered stars: 1 amine (or outer) side, 2 acyl side, 3 side chain; on linkers, the order of the positions; unused ones are H or OH. Bridge positions count the residues as written; N and C are the ends. Square brackets hold non-standard residues; d marks the D form. Ends that are not written are not given here. * marks the point of attachment. X12 = (S)‑(trifluoromethyl)‑L‑cysteine, O=C([C@H](CSC(F)(F)F)N[*:1])[*:2]; (N,N-diMe)A = (N,N-diMe)A, L-N,N-dimethylalanine, C[C@@H](C(=O)*)N(C)C; Leu(4-F) = 4-fluoroleucine, CC(C)(F)C[C@H](N[*:1])C(=O)[*:2]; Pro(4-spirocPr) = O=C(O)[C@@H]1CC2(CC2)CN1; Oic = O=C(O)[C@@H]1C[C@@H]2CCCC[C@@H]2N1; Phe(2-Cl) = N[C@@H](Cc1ccccc1Cl)C(=O)O; tBuAla = CC(C)(C)C[C@H](N)C(=O)O; Chg = N[C@H](C(=O)O)C1CCCCC1; Pen = CC(C)(S)[C@H](N)C(=O)O; ΔPro = O=C(O)[C@@H]1C=CCN1; 4Amb = NCc1ccc(C(=O)O)cc1; NMeC = CN[C@@H](CS)C(=O)O; Orn = NCCC[C@H](N)C(=O)O; Sar = CNCC(=O)O

T1: Recombinant human MASP1 enzyme (fragment corresponding to amino acids 297-699, C-terminal His Tag) (human, UniProt P48740 297-699)
T1 sequence: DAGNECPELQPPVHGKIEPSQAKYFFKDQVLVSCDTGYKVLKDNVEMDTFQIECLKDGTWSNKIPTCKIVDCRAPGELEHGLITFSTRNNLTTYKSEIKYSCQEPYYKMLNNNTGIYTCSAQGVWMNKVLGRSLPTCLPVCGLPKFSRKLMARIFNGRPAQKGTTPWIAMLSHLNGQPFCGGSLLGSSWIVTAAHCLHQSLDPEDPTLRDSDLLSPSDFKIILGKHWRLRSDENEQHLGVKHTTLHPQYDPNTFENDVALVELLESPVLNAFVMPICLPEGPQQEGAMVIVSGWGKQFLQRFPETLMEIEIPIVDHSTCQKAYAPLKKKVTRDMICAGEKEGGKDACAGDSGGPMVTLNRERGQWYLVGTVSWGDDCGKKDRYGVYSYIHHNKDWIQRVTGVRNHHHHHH

B1: (4-(Aminomethyl)benzoic acid)-IC+SRS-((tBu)A)-PPI-((N-Me)C)+IPD-NH2 (peptide)
peptide: [4Amb]ICSRS[tBuAla]PPI[NMeC]IPD-NH2
modifications: disulfide 3-11; N-terminus assumed
SMILES: CC[C@H](C)[C@H](NC(=O)c1ccc(CN)cc1)C(=O)N[C@H]1CSSC[C@@H](C(=O)N[C@H](C(=O)N2CCC[C@H]2C(=O)N[C@@H](CC(=O)O)C(N)=O)[C@@H](C)CC)N(C)C(=O)[C@H]([C@@H](C)CC)NC(=O)[C@@H]2CCCN2C(=O)[C@@H]2CCCN2C(=O)[C@H](CC(C)(C)C)NC(=O)[C@H](CO)NC(=O)[C@H](CCCNC(=N)N)NC(=O)[C@H](CO)NC1=O
B2: AIC+SRS-((4-Fluoro)L)-PPIC+IPD-NH2 (peptide)
peptide: AICSRS[Leu(4-F)]PPICIPD-NH2
modifications: disulfide 3-11; N-terminus assumed
SMILES: CC[C@H](C)[C@H](NC(=O)[C@H](C)N)C(=O)N[C@H]1CSSC[C@@H](C(=O)N[C@H](C(=O)N2CCC[C@H]2C(=O)N[C@@H](CC(=O)O)C(N)=O)[C@@H](C)CC)NC(=O)[C@H]([C@@H](C)CC)NC(=O)[C@@H]2CCCN2C(=O)[C@@H]2CCCN2C(=O)[C@H](CC(C)(C)F)NC(=O)[C@H](CO)NC(=O)[C@H](CCCNC(=N)N)NC(=O)[C@H](CO)NC1=O
B3: (Orn)-IC+SRS-((S)-(trifluoromethyl)-L-cysteine)-PPI-(Pen)+IP-NH2 (peptide)
peptide: [Orn]ICSRS[X12]PPI[Pen]IP-NH2
modifications: disulfide 3-11; N-terminus assumed
SMILES: CC[C@H](C)[C@H](NC(=O)[C@@H](N)CCCN)C(=O)N[C@H]1CSSC(C)(C)[C@@H](C(=O)N[C@H](C(=O)N2CCC[C@H]2C(N)=O)[C@@H](C)CC)NC(=O)[C@H]([C@@H](C)CC)NC(=O)[C@@H]2CCCN2C(=O)[C@@H]2CCCN2C(=O)[C@H](CSC(F)(F)F)NC(=O)[C@H](CO)NC(=O)[C@H](CCCNC(=N)N)NC(=O)[C@H](CO)NC1=O
B4: ((N-Me)G)-IC+SRS-((tBu)A)-PPIC+IPD-OH (peptide)
peptide: [Sar]ICSRS[tBuAla]PPICIPD-OH
modifications: disulfide 3-11; N-terminus assumed
SMILES: CC[C@H](C)[C@H](NC(=O)CNC)C(=O)N[C@H]1CSSC[C@@H](C(=O)N[C@H](C(=O)N2CCC[C@H]2C(=O)N[C@@H](CC(=O)O)C(=O)O)[C@@H](C)CC)NC(=O)[C@H]([C@@H](C)CC)NC(=O)[C@@H]2CCCN2C(=O)[C@@H]2CCCN2C(=O)[C@H](CC(C)(C)C)NC(=O)[C@H](CO)NC(=O)[C@H](CCCNC(=N)N)NC(=O)[C@H](CO)NC1=O
B5: AIC+SRSLP-((6S)-5-Azaspiro[2.4]heptane-6-carboxylic acid)-IC+IPD-NH2 (peptide)
peptide: AICSRSLP[Pro(4-spirocPr)]ICIPD-NH2
modifications: disulfide 3-11; N-terminus assumed
SMILES: CC[C@H](C)[C@H](NC(=O)[C@H](C)N)C(=O)N[C@H]1CSSC[C@@H](C(=O)N[C@H](C(=O)N2CCC[C@H]2C(=O)N[C@@H](CC(=O)O)C(N)=O)[C@@H](C)CC)NC(=O)[C@H]([C@@H](C)CC)NC(=O)[C@@H]2CC3(CC3)CN2C(=O)[C@@H]2CCCN2C(=O)[C@H](CC(C)C)NC(=O)[C@H](CO)NC(=O)[C@H](CCCNC(=N)N)NC(=O)[C@H](CO)NC1=O
B6: AIC+SRSLPP-(Chg)-C+I-NH2 (peptide)
peptide: AICSRSLPP[Chg]CI-NH2
modifications: disulfide 3-11; N-terminus assumed
SMILES: CC[C@H](C)[C@H](NC(=O)[C@@H]1CSSC[C@H](NC(=O)[C@@H](NC(=O)[C@H](C)N)[C@@H](C)CC)C(=O)N[C@@H](CO)C(=O)N[C@@H](CCCNC(=N)N)C(=O)N[C@@H](CO)C(=O)N[C@@H](CC(C)C)C(=O)N2CCC[C@H]2C(=O)N2CCC[C@H]2C(=O)N[C@@H](C2CCCCC2)C(=O)N1)C(N)=O
B7: ((N,N-diMe)A)-IC+SRS-((tBu)A)-PPIC+IPD-NH2 (peptide)
peptide: [(N,N-diMe)A]ICSRS[tBuAla]PPICIPD-NH2
modifications: disulfide 3-11; N-terminus assumed
SMILES: CC[C@H](C)[C@H](NC(=O)[C@H](C)N(C)C)C(=O)N[C@H]1CSSC[C@@H](C(=O)N[C@H](C(=O)N2CCC[C@H]2C(=O)N[C@@H](CC(=O)O)C(N)=O)[C@@H](C)CC)NC(=O)[C@H]([C@@H](C)CC)NC(=O)[C@@H]2CCCN2C(=O)[C@@H]2CCCN2C(=O)[C@H](CC(C)(C)C)NC(=O)[C@H](CO)NC(=O)[C@H](CCCNC(=N)N)NC(=O)[C@H](CO)NC1=O
B8: AIC+SRS-((2-Chloro)F)-PPI-((N-Me)C)+IPD-NH2 (peptide)
peptide: AICSRS[Phe(2-Cl)]PPI[NMeC]IPD-NH2
modifications: disulfide 3-11; N-terminus assumed
SMILES: CC[C@H](C)[C@H](NC(=O)[C@H](C)N)C(=O)N[C@H]1CSSC[C@@H](C(=O)N[C@H](C(=O)N2CCC[C@H]2C(=O)N[C@@H](CC(=O)O)C(N)=O)[C@@H](C)CC)N(C)C(=O)[C@H]([C@@H](C)CC)NC(=O)[C@@H]2CCCN2C(=O)[C@@H]2CCCN2C(=O)[C@H](Cc2ccccc2Cl)NC(=O)[C@H](CO)NC(=O)[C@H](CCCNC(=N)N)NC(=O)[C@H](CO)NC1=O
B9: ((N-Me)G)-IC+SRSLP-(Oic)-I-(Pen)+I-NH2 (peptide)
peptide: [Sar]ICSRSLP[Oic]I[Pen]I-NH2
modifications: disulfide 3-11; N-terminus assumed
SMILES: CC[C@H](C)[C@H](NC(=O)[C@H]1NC(=O)[C@H]([C@@H](C)CC)NC(=O)[C@@H]2C[C@@H]3CCCC[C@@H]3N2C(=O)[C@@H]2CCCN2C(=O)[C@H](CC(C)C)NC(=O)[C@H](CO)NC(=O)[C@H](CCCNC(=N)N)NC(=O)[C@H](CO)NC(=O)[C@@H](NC(=O)[C@@H](NC(=O)CNC)[C@@H](C)CC)CSSC1(C)C)C(N)=O
B10: AIC+SRSL-(L-dehydroproline)-(Oic)-I-(Pen)+IPD-OH (peptide)
peptide: AICSRSL[ΔPro][Oic]I[Pen]IPD-OH
modifications: disulfide 3-11; N-terminus assumed
SMILES: CC[C@H](C)[C@H](NC(=O)[C@H](C)N)C(=O)N[C@H]1CSSC(C)(C)[C@@H](C(=O)N[C@H](C(=O)N2CCC[C@H]2C(=O)N[C@@H](CC(=O)O)C(=O)O)[C@@H](C)CC)NC(=O)[C@H]([C@@H](C)CC)NC(=O)[C@@H]2C[C@@H]3CCCC[C@@H]3N2C(=O)[C@@H]2C=CCN2C(=O)[C@H](CC(C)C)NC(=O)[C@H](CO)NC(=O)[C@H](CCCNC(=N)N)NC(=O)[C@H](CO)NC1=O

target: T1, Recombinant human MASP1 enzyme …; test: cell-based or functional assay

Row | human MASP1 IC50 [nM] | Binder
1 | 8.2 | AICSRSL[(4aR,6aR,9S,11aS)‑11‑Oxo‑2,3,4,4a,6a,7,8,9,11,11a‑decahydro‑1H‑pyrido(3,2-e)pyrrolo(1,2-a)azepine‑9‑carboxylic acid]ICIPD-NH2 (disulfide 3-10)
2 | 8.1 | B1
3 | 8.9 | B2
4 | 8.1 | B3
5 | 8.8 | B4
6 | 8.5 | B5
7 | 8.9 | B6
8 | 8.3 | B7
9 | 8.1 | B8
10 | 8.45 | B9
11 | 1.4 | [Sar]ICSRSLP[Oic]I[Pen]IP-NH2 (disulfide 3-11; also: acetate salt) [((N-Me)G)-IC+SRSLP-(Oic)-I-(Pen)+IP-NH2 (Acetate)]
12 | 9.3 | B10

target: Recombinant human MASP2 enzyme (fragment corresponding to amino acids 297-686, C-terminal His Tag) (human, UniProt O00187 297-686); test: cell-based or functional assay
Sequence (O00187 other isoform, or with tags, fused parts or gaps limits assumed): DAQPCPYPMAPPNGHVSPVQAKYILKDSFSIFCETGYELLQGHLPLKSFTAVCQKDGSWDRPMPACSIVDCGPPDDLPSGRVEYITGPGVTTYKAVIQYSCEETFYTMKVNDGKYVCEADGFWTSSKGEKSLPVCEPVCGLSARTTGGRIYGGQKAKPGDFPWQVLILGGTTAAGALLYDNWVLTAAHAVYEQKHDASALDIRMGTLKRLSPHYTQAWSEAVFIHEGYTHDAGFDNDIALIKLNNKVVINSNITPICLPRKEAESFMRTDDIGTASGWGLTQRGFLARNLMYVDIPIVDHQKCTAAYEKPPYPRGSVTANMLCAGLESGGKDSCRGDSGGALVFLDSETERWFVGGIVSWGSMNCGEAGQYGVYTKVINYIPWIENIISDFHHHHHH

Row | human MASP2 IC50 [nM] | Binder
13 | 72.5 | AICSRSL[(4aR,6aR,9S,11aS)‑11‑Oxo‑2,3,4,4a,6a,7,8,9,11,11a‑decahydro‑1H‑pyrido(3,2-e)pyrrolo(1,2-a)azepine‑9‑carboxylic acid]ICIPD-NH2 (disulfide 3-10)
14 | 35 | B1
15 | 300 | B2
16 | 56 | B3
17 | 2600 | B4
18 | 33 | B5
19 | 92 | B6
20 | 120 | B7
21 | 130 | B8
22 | 295 | B9
23 | 37 | [Sar]ICSRSLP[Oic]I[Pen]IP-NH2 (disulfide 3-11; also: acetate salt) [((N-Me)G)-IC+SRSLP-(Oic)-I-(Pen)+IP-NH2 (Acetate)]
24 | 64 | B10
